Data on four sequences can be found in the Immune Epitope Database (IEDB).

For one experiment, the target named is HLA-B*46:01. The experiment can be described thus: IEDB peptide-MHC binding, purified MHC/competitive/fluorescence; filed as Kd, often an IC50 or EC50 that approximates it; ≥ and ≤ were set here for values at or beyond the usual limits of such assays. The settings on record: source organism: Homo sapiens.
Another experiment concerns the target HLA-B*15:02. The description is as above. The settings on record: source organism: Homo sapiens.
In experiment [1] the target is HLA-A*29:02. Description: IEDB peptide-MHC binding, purified MHC/competitive/radioactivity; filed as Kd, often an IC50 or EC50 that approximates it; ≥ and ≤ were set here for values at or beyond the usual limits of such assays. The settings on record: source organism: Homo sapiens.
Experiment [2] concerns the target HLA-B*58:01. Described as above. As to conditions: source organism: Homo sapiens.
The target in experiment [3] is HLA-B*57:01. Described as above. The settings on record: source organism: Homo sapiens.
Experiment [4] addresses HLA-A*02:01. The description is as above. As to conditions: source organism: Homo sapiens.
Another experiment has as its target HLA-A*02:07. The experiment is described as above. As to conditions: source organism: Homo sapiens.
The target in the next experiment is HLA-A*02:03. The experiment can be described thus: IEDB peptide-MHC binding, purified MHC/competitive/fluorescence; filed as Kd, often an IC50 or EC50 that approximates it; ≥ and ≤ were set here for values at or beyond the usual limits of such assays.
Another experiment concerns the target HLA-A*02:12. The experiment can be described thus: IEDB peptide-MHC binding, purified MHC/direct/fluorescence; filed as Kd, often an IC50 or EC50 that approximates it; ≥ and ≤ were set here for values at or beyond the usual limits of such assays. As to conditions: source organism: Geobacillus sp. WCH70.
A further experiment concerns the target HLA-A*02:06. The description is as above. The settings on record: source organism: Geobacillus sp. WCH70.
In experiment [5] the target is HLA-A*02:01. The experiment is described as above.
Experiment [6] addresses HLA-A*11:01. Description: IEDB peptide-MHC binding, purified MHC/competitive/fluorescence; filed as Kd, often an IC50 or EC50 that approximates it; ≥ and ≤ were set here for values at or beyond the usual limits of such assays. As to conditions: source organism: Vaccinia virus Copenhagen.
The target of experiment [7] is HLA-B*07:02. Described as above. The settings on record: source organism: Vaccinia virus Copenhagen.
For experiment [8], the target named is HLA-B*08:01. The description is as above. The settings on record: source organism: Vaccinia virus Copenhagen.
For a further experiment, the target named is HLA-A*30:01. The description is as above. The settings on record: source organism: Vaccinia virus Copenhagen.
Another experiment concerns the target HLA-B*08:03. Description: IEDB peptide-MHC binding, purified MHC/direct/fluorescence; filed as Kd, often an IC50 or EC50 that approximates it; ≥ and ≤ were set here for values at or beyond the usual limits of such assays. As to conditions: source organism: Variola virus.
In experiment [9] the target is HLA-B*18:01. Described as above. As to conditions: source organism: Camelpox virus M-96.
Another experiment has as its target HLA-B*48:01. The description is as above. As to conditions: source organism: Camelpox virus M-96.
The target in the next experiment is HLA-A*26:03. Described as above. As to conditions: source organism: Variola virus.
The target in another experiment is HLA-B*27:05. The description is as above. The settings on record: source organism: Camelpox virus M-96.
In experiment [10] the target is HLA-A*68:02. The description is as above. The settings on record: source organism: Camelpox virus M-96.
Experiment [11] addresses HLA-B*58:01. Described as above. As to conditions: source organism: Camelpox virus M-96.
Another experiment addresses HLA-A*69:01. The experiment is described as above. As to conditions: source organism: Camelpox virus M-96.
The target of a further experiment is HLA-B*15:17. The description is as above. The settings on record: source organism: Camelpox virus M-96.
Experiment [12] has as its target HLA-B*57:01. Described as above. As to conditions: source organism: Camelpox virus M-96.
Experiment [13] deals with HLA-A*01:01. The description is as above. The settings on record: source organism: Camelpox virus M-96.
Another experiment deals with HLA-B*15:01. The description is as above. As to conditions: source organism: Camelpox virus M-96.
For experiment [14], the target named is HLA-A*11:01. The experiment can be described thus: IEDB peptide-MHC binding, purified MHC/competitive/fluorescence; ≥ and ≤ were set here for values at or beyond the usual limits of such assays. As to conditions: source organism: Mus musculus.
The next experiment addresses HLA-A*31:01. The experiment is described as above. As to conditions: source organism: Mus musculus.
In experiment [15] the target is HLA-B*07:02. The experiment is described as above. The settings on record: source organism: Mus musculus.
The target in experiment [16] is HLA-B*18:01. The description is as above. The settings on record: source organism: Mus musculus.
For another experiment, the target named is HLA-B*53:01. The description is as above. As to conditions: source organism: Mus musculus.
For a further experiment, the target named is HLA-B*44:03. The description is as above. As to conditions: source organism: Mus musculus.
The target in another experiment is HLA-A*25:01. Described as above. The settings on record: source organism: Mus musculus.
For another experiment, the target named is HLA-B*35:01. The experiment is described as above. As to conditions: source organism: Mus musculus.
For another experiment, the target named is HLA-B*14:02. The description is as above. As to conditions: source organism: Mus musculus.
The next experiment deals with HLA-A*24:02. The description is as above. As to conditions: source organism: Mus musculus.
For experiment [17], the target named is HLA-A*68:02. The description is as above. The settings on record: source organism: Mus musculus.
For experiment [18], the target named is HLA-A*29:02. The experiment is described as above. As to conditions: source organism: Mus musculus.
Experiment [19] addresses HLA-B*08:01. The experiment is described as above. The settings on record: source organism: Mus musculus.
Another experiment deals with HLA-A*03:01. The experiment is described as above. As to conditions: source organism: Mus musculus.
Experiment [20] has as its target HLA-B*58:01. Described as above. The settings on record: source organism: Mus musculus.
A further experiment concerns the target HLA-B*40:02. The description is as above. As to conditions: source organism: Mus musculus.
A further experiment concerns the target HLA-B*51:01. The experiment is described as above. The settings on record: source organism: Mus musculus.
The target of the next experiment is HLA-B*37:01. Described as above. The settings on record: source organism: Mus musculus.
The target of experiment [21] is HLA-A*02:01. The experiment is described as above. As to conditions: source organism: Mus musculus.
In experiment [22] the target is HLA-A*01:01. The experiment is described as above. As to conditions: source organism: Mus musculus.

By Kd is commonly meant the constant that tells how readily two partners part at equilibrium. Consider FAFVTDNTY, for which the Kd in the experiment with HLA-B*46:01 is 0.0131 µM; in the experiment with HLA-B*15:02, 0.00255 µM; in the experiment with HLA-A*29:02 [1], 0.0441 µM; with HLA-B*58:01 [2], 0.084 µM; with HLA-B*57:01 [3], 0.106 µM; in the experiment with HLA-A*02:01 [4], not below 78.1 µM. Besides, the equilibrium dissociation constant (Kd) in the experiment with HLA-A*02:07 was not below 77.7 µM.

With GLPESTPSL, the Kd with HLA-A*02:03 (source organism: Bacillus anthracis str. A0488) is 0.0214 µM; with HLA-A*02:12 it was 0.12 µM; with HLA-A*02:06, 0.014 µM; with HLA-A*02:01 [5] (source organism: Bacillus cereus), 0.0121 µM.

Turning to NRLKPRDFK, the dissociation constant Kd with HLA-A*11:01 [6] is not below 20 µM; in the experiment with HLA-B*07:02 [7], 3 µM; with HLA-B*08:01 [8], 3 µM; with HLA-A*30:01 it was not below 20 µM; with HLA-A*02:03 (source organism: Vaccinia virus Copenhagen), not below 20 µM; in the experiment with HLA-B*08:03 it was not below 20 µM. Further, the Kd with HLA-B*18:01 [9] is not below 20 µM; in the experiment with HLA-B*48:01, not below 20 µM; with HLA-A*26:03, not below 20 µM; in the experiment with HLA-B*27:05, 1.79 µM; with HLA-A*68:02 [10], not below 20 µM; with HLA-B*58:01 [11], not below 20 µM. In addition, the dissociation constant (Kd) with HLA-A*69:01, in the experiment with HLA-B*15:17, with HLA-B*57:01 [12], in the experiment with HLA-A*02:01 [5] (source organism: Camelpox virus M-96), with HLA-A*01:01 [13] and with HLA-B*15:01 was not below 20 µM in each case.

What is called IC50 is the concentration at which inhibition is half-maximal. Read a high IC50 as weaker potency in that assay. On to VALFSSCPVAY, for which the 50% inhibitory concentration (IC50) with HLA-A*11:01 [14], in the experiment with HLA-A*31:01, with HLA-B*07:02 [15], with HLA-B*18:01 [16], with HLA-B*53:01 and in the experiment with HLA-B*44:03 was not below 20 µM throughout. Moreover, the IC50 with HLA-A*25:01 was not below 20 µM; with HLA-B*35:01, 0.0138 µM; with HLA-B*14:02 it was not below 20 µM; with HLA-A*24:02 it was not below 20 µM; with HLA-A*68:02 [17] it was not below 20 µM; with HLA-A*29:02 [18] it was 0.0381 µM. Moreover, the IC50 in the experiment with HLA-B*08:01 [19], with HLA-A*03:01, with HLA-B*58:01 [20], with HLA-B*40:02, with HLA-B*51:01 and with HLA-B*37:01 was not below 20 µM throughout. Also, the IC50 in the experiment with HLA-A*02:01 [21] and with HLA-A*01:01 [22] was not below 20 µM each time.
